Measured values as given in article PMC10853778 (Nucleic Acids Research, 2022).

Experiments:
[1] = molecular target: HA-tagged human RTEL1 HHD1+2 deletion construct (human) (UniProt Q9NZ71); test: co-IP; whole-cell extracts of HEK293T cells overexpressing HA-tagged RTEL1 constructs; IP overnight at 4°C (anti-HA), protein G agarose, immunoblot for RPA; with or without 100 units Benzonase
RTEL1 HHD2 [2] = molecular target: T1, RTEL1 HHD2 (Homo sapiens, UniProt Q9NZ71-6 1056-1140); test: ITC; pH 6.5; NMR: 20 mM Tris-HCl pH 7.4, 50 mM NaCl, 2 mM DTT, 0.02% NaN3, 10% D2O, 25 C (one ssDNA-22 titration at pH 6.5); ITC: 10 mM potassium phosphate pH 6.5, 50 mM KCl, 0.02% NaN3, 25 C; conditions: protein: recombinant, tags: N-terminal 6xHis
T1 sequence: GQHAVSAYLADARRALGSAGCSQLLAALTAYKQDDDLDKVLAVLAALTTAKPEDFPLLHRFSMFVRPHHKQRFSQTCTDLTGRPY

RTEL1 HHD1 = molecular target: T2, RTEL1 HHD1 (Homo sapiens, UniProt Q9NZ71-6 886-978); test: NMR titration; NMR: 20 mM Tris-HCl pH 7.4, 50 mM NaCl, 2 mM DTT, 0.02% NaN3, 10% D2O, 25 C (one ssDNA-22 titration at pH 6.5); ITC: 10 mM potassium phosphate pH 6.5, 50 mM KCl, 0.02% NaN3, 25 C; conditions: protein: recombinant; tags: N-terminal 6xHis; single strand
T2 sequence: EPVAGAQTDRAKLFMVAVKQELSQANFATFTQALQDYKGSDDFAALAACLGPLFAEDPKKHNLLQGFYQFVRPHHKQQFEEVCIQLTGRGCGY

RTEL1 HHD2 [3] = molecular target: T1, RTEL1 HHD2; test: NMR titration (TITAN); pH 7.4; NMR: 20 mM Tris-HCl pH 7.4, 50 mM NaCl, 2 mM DTT, 0.02% NaN3, 10% D2O, 25 C (one ssDNA-22 titration at pH 6.5); ITC: 10 mM potassium phosphate pH 6.5, 50 mM KCl, 0.02% NaN3, 25 C; conditions: protein: recombinant, tags: N-terminal 6xHis
RTEL1 HHD2 [4] = molecular target: T1, RTEL1 HHD2; test: NMR titration (TITAN); pH 6.5; NMR: 20 mM Tris-HCl pH 7.4, 50 mM NaCl, 2 mM DTT, 0.02% NaN3, 10% D2O, 25 C (one ssDNA-22 titration at pH 6.5); ITC: 10 mM potassium phosphate pH 6.5, 50 mM KCl, 0.02% NaN3, 25 C; conditions: protein: recombinant; tags: N-terminal 6xHis; single strand
[5] = molecular target: T3, RPA 32C winged-helix domain (residues 172-270 of RPA32) (human, UniProt P15927 172-270); test: NMR titration; 15N-labelled partner titrated with unlabelled partner; 1H-15N HSQC, 25°C, 20 mM Tris-HCl pH 7.4, 50 mM NaCl, 2 mM DTT, 0.02% NaN3; Kd and Koff from TITAN 2D lineshape analysis, two-state model; conditions: both partners purified
T3 construct: RPA32 (RPA2), human, residues 172-270 (winged-helix 32C domain); pET-15b; uniformly 15N-labelled where it was the observed partner; source: E. coli BL21(DE3) pLysS, purified (Ni-NTA, Q column, SEC); not shown: His6, N-terminal, kept

RTEL1 HHD2 [6] = molecular target: T1, RTEL1 HHD2; test: NMR titration; pH 7.4; NMR: 20 mM Tris-HCl pH 7.4, 50 mM NaCl, 2 mM DTT, 0.02% NaN3, 10% D2O, 25 C (one ssDNA-22 titration at pH 6.5); ITC: 10 mM potassium phosphate pH 6.5, 50 mM KCl, 0.02% NaN3, 25 C; conditions: protein: recombinant; tags: N-terminal 6xHis; single strand

T3 sequence (P15927 172-270): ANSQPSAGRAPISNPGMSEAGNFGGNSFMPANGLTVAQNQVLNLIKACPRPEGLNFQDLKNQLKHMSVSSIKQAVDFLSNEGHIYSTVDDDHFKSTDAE

Molecule: endogenous replication protein A (RPA) of HEK293T cells (from UniProt P27694 1-616; P15927 1-270; P35244 1-121) (complex)
- reduction of co-immunoprecipitated RPA against full-length HA-RTEL1 [1]: 80%

B1: ssDNA-22 (ssDNA)
DNA: AGGATTAGGATTAGGATTAGGA
- Kd (RTEL1 HHD2 [2]; single strand): 0.94 ± 0.13 µM
- binding result (RTEL1 HHD1): no binding
- Kd (RTEL1 HHD2 [3]; single strand): 14.6 ± 1.21 µM
- Kd (RTEL1 HHD2 [4]): 3.03 ± 0.64 µM

B2: dsDNA-24 (dsDNA)
DNA 1: TTAGGCAGAGAGAGAGAGTTAGGC
DNA 2: GCCTAACTCTCTCTCTCTGCCTAA
- Kd (RTEL1 HHD2 [2]; blunt): 1.95 ± 0.31 µM

B3: ssDNA-24 (ssDNA)
DNA: TTAGGCAGAGAGAGAGAGTTAGGC
- Kd (RTEL1 HHD2 [2]; single strand): 1.32 ± 0.15 µM

B4: RTEL1 harmonin homology domain 2 (residues 1056-1140) (domain or fragment, human, UniProt Q9NZ71-6 1056-1140, looked up)
chain: GQHAVSAYLADARRALGSAGCSQLLAALTAYKQDDDLDKVLAVLAALTTAKPEDFPLLHRFSMFVRPHHKQRFSQTCTDLTGRPY
notes: RTEL1, human, residues 1056-1140 (HHD2) of Uniprot Q9NZ71-6; uniformly 15N-labelled where it was the observed partner; also called HHD2; RTEL1 HHD2; source: E. coli Rosetta (DE3), purified (Ni-NTA, heparin, SEC); not shown: His6, N-terminal, kept
- Kd [5]: 360 µM
- koff [5]: 8460 s⁻¹

B5: ssDNA-12 (ssDNA)
DNA: TTAGGATTAGGA
- Kd (RTEL1 HHD2 [2]; single strand): 1.51 ± 0.14 µM

B6: dsDNA-22 (dsDNA)
DNA 1: AGGATTAGGATTAGGATTAGGA
DNA 2: TCCTAATCCTAATCCTAATCCT
- Kd (RTEL1 HHD2 [3]; blunt): 19.7 ± 4.67 µM

B7: 5'ss_dsDNA-24 (mixed)
DNA 1: TTAGGCAGAGAGAGAGAGTTAGGC
DNA 2: GCCTAACTCTCTCTCTCT
- Kd (RTEL1 HHD2 [2]; 5' overhang 6 nt (strand 1)): 2.58 ± 0.27 µM

B8: 3'ss_dsDNA-24 (mixed)
DNA 1: TTAGGCAGAGAGAGAGAGTTAGGC
DNA 2: CTCTCTCTCTCTGCCTAA
- Kd (RTEL1 HHD2 [2]; 3' overhang 6 nt (strand 1)): 1.22 ± 0.09 µM

B9: ssDNA-6 (ssDNA)
DNA: TTAGGA
- binding result (RTEL1 HHD2 [6]): no binding
